# Experimental data reported in article doi:10.1101/2024.11.25.625210.
# Target: Tom1 (S. cerevisiae HECT ubiquitin ligase), full-length, wild type (S. cerevisiae) (UniProt Q03280)
# Experiment: cryo-EM structure
# UniProt Q03280, sequence (Q03280 whole entry): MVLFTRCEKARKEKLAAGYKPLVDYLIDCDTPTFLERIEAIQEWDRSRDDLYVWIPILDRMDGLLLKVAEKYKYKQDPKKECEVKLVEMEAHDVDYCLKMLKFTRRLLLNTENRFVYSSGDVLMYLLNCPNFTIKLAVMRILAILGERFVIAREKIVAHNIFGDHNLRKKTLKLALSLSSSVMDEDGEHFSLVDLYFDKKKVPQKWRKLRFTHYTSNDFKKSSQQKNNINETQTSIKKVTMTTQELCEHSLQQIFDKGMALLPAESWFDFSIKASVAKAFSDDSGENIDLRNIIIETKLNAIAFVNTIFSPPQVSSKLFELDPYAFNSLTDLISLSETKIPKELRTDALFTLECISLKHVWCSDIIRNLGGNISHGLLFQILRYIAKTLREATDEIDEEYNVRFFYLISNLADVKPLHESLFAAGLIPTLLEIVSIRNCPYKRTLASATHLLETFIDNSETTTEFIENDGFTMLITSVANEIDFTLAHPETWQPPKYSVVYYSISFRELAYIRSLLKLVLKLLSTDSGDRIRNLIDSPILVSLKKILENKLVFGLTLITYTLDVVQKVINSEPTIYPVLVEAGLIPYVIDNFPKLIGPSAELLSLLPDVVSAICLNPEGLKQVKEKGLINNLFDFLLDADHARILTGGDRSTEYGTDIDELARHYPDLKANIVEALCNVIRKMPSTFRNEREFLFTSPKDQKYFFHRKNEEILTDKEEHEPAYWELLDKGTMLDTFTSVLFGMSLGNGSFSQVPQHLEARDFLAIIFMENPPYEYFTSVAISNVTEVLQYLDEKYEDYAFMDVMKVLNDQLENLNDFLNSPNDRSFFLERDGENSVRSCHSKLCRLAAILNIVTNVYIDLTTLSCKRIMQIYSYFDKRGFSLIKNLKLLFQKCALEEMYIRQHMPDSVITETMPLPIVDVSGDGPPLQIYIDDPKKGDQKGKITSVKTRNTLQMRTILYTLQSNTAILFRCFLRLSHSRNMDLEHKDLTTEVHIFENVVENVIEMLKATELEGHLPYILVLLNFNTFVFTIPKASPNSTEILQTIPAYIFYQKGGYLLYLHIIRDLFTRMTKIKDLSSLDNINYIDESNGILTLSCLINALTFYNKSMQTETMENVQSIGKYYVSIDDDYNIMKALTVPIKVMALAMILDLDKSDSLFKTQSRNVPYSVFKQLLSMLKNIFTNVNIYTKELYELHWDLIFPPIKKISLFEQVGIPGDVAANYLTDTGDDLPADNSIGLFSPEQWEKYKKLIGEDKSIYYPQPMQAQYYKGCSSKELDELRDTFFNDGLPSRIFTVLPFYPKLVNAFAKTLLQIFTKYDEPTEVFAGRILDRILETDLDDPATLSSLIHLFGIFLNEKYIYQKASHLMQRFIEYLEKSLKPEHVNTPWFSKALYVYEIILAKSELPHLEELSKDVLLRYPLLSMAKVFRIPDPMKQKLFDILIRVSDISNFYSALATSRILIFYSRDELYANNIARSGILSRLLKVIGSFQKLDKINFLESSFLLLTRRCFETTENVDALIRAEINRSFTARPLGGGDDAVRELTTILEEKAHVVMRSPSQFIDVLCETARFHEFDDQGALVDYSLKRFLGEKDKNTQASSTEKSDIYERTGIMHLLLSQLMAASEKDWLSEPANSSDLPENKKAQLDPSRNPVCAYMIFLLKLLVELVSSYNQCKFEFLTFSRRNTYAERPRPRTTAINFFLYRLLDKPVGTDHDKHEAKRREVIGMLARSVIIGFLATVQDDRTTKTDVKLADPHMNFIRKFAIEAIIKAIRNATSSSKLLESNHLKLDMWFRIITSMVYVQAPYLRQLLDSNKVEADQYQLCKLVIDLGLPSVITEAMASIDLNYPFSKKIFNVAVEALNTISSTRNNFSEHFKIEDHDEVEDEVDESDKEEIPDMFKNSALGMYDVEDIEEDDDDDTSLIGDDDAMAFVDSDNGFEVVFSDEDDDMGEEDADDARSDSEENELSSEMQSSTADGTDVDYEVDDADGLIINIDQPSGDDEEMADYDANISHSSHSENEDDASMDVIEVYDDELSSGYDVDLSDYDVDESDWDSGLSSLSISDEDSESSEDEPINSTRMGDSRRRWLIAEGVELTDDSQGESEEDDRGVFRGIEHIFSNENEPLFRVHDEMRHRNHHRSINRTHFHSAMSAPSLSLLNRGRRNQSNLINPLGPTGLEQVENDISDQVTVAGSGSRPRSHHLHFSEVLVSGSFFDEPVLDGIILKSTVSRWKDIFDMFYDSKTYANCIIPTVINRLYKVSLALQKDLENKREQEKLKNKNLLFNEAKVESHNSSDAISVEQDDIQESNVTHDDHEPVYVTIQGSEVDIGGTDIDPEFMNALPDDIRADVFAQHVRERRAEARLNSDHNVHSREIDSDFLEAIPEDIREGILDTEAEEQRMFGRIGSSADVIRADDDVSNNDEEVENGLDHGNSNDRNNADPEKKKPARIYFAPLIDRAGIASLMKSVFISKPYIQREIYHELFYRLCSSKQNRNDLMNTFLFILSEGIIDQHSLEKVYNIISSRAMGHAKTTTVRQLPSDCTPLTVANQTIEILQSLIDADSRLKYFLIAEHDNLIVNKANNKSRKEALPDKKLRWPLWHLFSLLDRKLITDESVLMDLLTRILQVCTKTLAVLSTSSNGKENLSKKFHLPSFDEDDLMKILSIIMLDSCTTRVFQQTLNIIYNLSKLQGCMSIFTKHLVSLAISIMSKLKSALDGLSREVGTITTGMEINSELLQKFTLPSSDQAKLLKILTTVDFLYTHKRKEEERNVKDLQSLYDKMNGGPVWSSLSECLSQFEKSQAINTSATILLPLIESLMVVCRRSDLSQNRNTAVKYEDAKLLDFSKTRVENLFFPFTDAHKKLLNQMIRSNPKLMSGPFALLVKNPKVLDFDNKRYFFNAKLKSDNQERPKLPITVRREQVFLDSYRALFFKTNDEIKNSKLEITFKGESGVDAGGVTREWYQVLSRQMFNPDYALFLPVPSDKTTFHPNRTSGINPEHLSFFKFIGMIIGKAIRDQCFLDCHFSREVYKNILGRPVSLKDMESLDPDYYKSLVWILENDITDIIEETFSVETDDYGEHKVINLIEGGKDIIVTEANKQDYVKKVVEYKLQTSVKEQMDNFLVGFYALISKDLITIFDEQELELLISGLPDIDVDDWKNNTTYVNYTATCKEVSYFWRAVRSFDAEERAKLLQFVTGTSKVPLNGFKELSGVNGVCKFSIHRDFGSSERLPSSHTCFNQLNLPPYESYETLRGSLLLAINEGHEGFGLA
substance,measurement,value
ubiquitin (from UniProt P0CG48 1-76) (natural protein),stoichiometry N,4
